From PMC7782793, “Hydroxamic acid-modified peptide microarrays for profiling isozyme-selective interactions and inhibition of histone deacetylases” (Nature Communications, 2021) come the findings set out here.

Starred links: 1 amine or outer side, 2 acyl side, 3 side chain; linkers in the order of their positions; H or OH if unused. Non-standard residues stand in square brackets, D forms with d. Residues, ends and D or L forms follow the SMILES beside them. Primed or numbered codes have the meaning given here. No end group written: not given here. Asuha″ = L-2-amino-8-(hydroxyamino)-8-oxooctanoic acid, O=C(CCCCC[C@H](N[*:1])C(=O)[*:2])NO; Asuha = 2-aminosuberic acid hydroxamate, O=C(CCCCC[C@H](N[*:1])C(=O)[*:2])NO[*:3]

Common to all, as to test: Recombinant HDAC µSPOT microarray binding assay
In one test the target is T1, HDAC8 (Homo sapiens, UniProt Q9BY41).
T1 construct: HDAC8 (full length, C-terminal His tag, BPS Bioscience, cat. #: 50008); purchased BPS Bioscience 50008
T1 sequence (Q9BY41 1-377): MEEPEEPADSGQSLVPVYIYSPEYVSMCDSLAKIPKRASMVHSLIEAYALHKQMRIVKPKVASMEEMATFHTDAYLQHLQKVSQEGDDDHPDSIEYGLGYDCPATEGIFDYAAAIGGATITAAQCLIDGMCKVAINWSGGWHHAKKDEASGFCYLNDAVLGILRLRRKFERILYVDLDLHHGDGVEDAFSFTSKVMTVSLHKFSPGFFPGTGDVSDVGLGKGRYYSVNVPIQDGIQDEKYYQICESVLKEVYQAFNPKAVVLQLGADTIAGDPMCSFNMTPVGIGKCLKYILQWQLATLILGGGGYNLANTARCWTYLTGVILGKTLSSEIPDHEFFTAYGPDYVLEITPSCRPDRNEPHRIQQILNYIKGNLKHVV

The target of a further test is T2, HDAC3/NCoR2 (Homo sapiens, UniProt O15379).
T2 construct: HDAC3/NCoR2 (full length, C-terminal His tag, NCoR2 N-terminal GST tag); purchased BPS Bioscience 50003
T2 sequence (O15379 whole entry): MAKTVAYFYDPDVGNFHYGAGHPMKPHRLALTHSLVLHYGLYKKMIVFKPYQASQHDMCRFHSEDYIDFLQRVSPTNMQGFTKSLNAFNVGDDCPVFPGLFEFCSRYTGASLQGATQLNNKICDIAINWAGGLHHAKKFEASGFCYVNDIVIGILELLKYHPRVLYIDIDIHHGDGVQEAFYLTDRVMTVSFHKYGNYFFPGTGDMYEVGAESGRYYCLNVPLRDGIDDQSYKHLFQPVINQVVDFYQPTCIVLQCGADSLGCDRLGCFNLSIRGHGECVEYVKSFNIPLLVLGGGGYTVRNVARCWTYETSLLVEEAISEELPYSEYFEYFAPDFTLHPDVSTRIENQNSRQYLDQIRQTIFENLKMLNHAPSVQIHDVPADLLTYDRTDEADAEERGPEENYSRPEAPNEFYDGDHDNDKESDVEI
T2 sequence (Q9Y618 389-480 partner limits assumed): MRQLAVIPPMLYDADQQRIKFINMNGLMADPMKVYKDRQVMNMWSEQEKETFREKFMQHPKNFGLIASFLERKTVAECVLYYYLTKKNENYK
The following applies: for Bottom (dose-response curve fit): fitted bottom plateau of binding signal; for Top (dose-response curve fit): fitted top plateau of binding signal.

Another test has as its target T3, HDAC1 (Homo sapiens, UniProt Q13547).
T3 construct: HDAC1 (full length, C-terminal His tag, C-terminal FLAG tag, BPS Bioscience, cat. #: 50051); FLAG (C); purchased BPS Bioscience 50051
The following applies: µSPOT microarray; for Bottom (dose-response fit): fitted bottom plateau of the binding curve; for Top (dose-response fit): fitted top plateau of the binding curve.

The target of a further test is T4, HDAC2 (Homo sapiens, UniProt Q92769).
T4 construct: HDAC2 (full length, C-terminal His tag, BPS Bioscience, cat. #: 50002); purchased BPS Bioscience 50002
T4 sequence (Q92769 whole entry): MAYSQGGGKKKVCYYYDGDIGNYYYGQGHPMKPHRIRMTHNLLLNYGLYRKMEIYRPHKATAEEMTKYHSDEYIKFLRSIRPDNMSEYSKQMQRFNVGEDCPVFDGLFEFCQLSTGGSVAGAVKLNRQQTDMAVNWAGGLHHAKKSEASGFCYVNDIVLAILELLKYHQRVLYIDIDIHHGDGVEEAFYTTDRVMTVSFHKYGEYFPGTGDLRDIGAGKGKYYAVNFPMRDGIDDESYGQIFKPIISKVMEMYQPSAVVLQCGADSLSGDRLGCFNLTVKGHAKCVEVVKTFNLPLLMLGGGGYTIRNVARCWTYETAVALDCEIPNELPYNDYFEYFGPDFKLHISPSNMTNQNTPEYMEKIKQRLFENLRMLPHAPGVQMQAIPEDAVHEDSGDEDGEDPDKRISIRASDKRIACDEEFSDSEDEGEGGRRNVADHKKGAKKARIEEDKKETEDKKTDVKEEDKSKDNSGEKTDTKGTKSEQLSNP
The following applies: for Bottom (Value) / Top (Value) / HillSlope (Value): HDAC2 microarray dose-response curve fit, X = Asuha, sheet Fig. 3 HDAC2; for Bottom (Value): bottom plateau; for Top (Value): top plateau; for Bottom / HillSlope / Top: dose-response fit parameter, µSPOT microarray, H4 K12X (X = Asuha) peptides, HDAC2.

The mark [1] stands for this setting: HDAC8 µSPOT microarray dose-response fit, Bottom Value, X = Asuha, sheet Fig. 3 HDAC8.
Setting [2] is: HDAC8 µSPOT microarray dose-response fit, HillSlope Value, X = Asuha, sheet Fig. 3 HDAC8.
Setting [3] is: HDAC8 µSPOT microarray dose-response fit, Top Value, X = Asuha, sheet Fig. 3 HDAC8.
The mark [4] stands for this setting: HDAC3 µSPOT microarray, Fig. 3, Hill slope of dose-response fit, X = Asuha.
[5] abbreviates: HDAC3 µSPOT microarray, Fig. 3, X = Asuha.
The mark [6] stands for this setting: recombinant HDAC1, Fig. 3, X = Asuha, Hill slope of the binding curve.
The mark [7] stands for this setting: recombinant HDAC1, Fig. 3, X = Asuha.
[8] abbreviates: dose-response fit parameter, µSPOT microarray, H4 K12X (X = Asuha) peptides, HDAC8.
Setting [9] is: dose-response fit parameter, µSPOT microarray, H4 K12X (X = Asuha) peptides, HDAC3.
The mark [10] stands for this setting: dose-response fit parameter, H4 K12X (X = Asuha) peptides, HDAC1.
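Wherever Bottom (dose-response curve fit) is given: peptide spots on cellulose slides incubated with rising HDAC enzyme concentrations, imaged together, four-parameter logistic fit, EC50 is enzyme concentration giving half-maximal binding signal, two experiments.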
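Wherever Bottom (dose-response curve fit) is given: relative spot intensity from the six enzyme-concentration slides imaged together.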
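Wherever Bottom (dose-response fit) is given: slides with spotted peptides incubated with six HDAC concentrations in HEPES buffer pH 7.4, spot intensities fitted by four-parameter logistic, EC50 as enzyme concentration giving half-maximal binding signal.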
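Wherever Bottom is given: relative spot intensity from the six enzyme-concentration slides imaged together.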
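Wherever Top (dose-response curve fit) is given: peptide spots on cellulose slides incubated with rising HDAC enzyme concentrations, imaged together, four-parameter logistic fit, EC50 is enzyme concentration giving half-maximal binding signal, two experiments.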
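Wherever Top (dose-response curve fit) is given: relative spot intensity from the six enzyme-concentration slides imaged together.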
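Wherever Top (dose-response fit) is given: slides with spotted peptides incubated with six HDAC concentrations in HEPES buffer pH 7.4, spot intensities fitted by four-parameter logistic, EC50 as enzyme concentration giving half-maximal binding signal.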
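Wherever Top is given: relative spot intensity from the six enzyme-concentration slides imaged together.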

T3 sequence (Q13547 whole entry): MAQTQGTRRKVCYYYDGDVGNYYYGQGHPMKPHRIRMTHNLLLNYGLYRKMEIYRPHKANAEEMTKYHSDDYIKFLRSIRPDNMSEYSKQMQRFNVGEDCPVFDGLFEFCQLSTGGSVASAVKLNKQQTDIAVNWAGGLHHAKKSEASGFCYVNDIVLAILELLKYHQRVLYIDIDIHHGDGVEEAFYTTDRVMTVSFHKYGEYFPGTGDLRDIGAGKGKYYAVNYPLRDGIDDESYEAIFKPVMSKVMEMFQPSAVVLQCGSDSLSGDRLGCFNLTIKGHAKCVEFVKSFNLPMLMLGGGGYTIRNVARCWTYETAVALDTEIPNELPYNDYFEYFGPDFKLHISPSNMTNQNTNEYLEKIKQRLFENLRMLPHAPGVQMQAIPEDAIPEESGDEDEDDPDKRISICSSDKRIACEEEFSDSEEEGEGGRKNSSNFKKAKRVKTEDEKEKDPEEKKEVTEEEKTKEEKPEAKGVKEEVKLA
Experimental for HDAC1: Experiments were performed twice, data were obtained with Array Analyze software (Active Motif), and data analysis and representation were performed with the GraphPad Prism 7 software. Outliers were curated manually and data were fitted to nonlinear regression [log(agonist) vs. response—variable slope (four parameters)]. […] Non-sigmoidal curves were denoted as not determined (N.D.) The pEC50 values were determined as the concentration of HDAC enzyme required for half-maximal binding signal.

For the compound “H2B 64-79 (SFVNDIFERIAGEASR; UniProt P62807 65-80, looked up, fragment)”, the Bottom with HDAC8 (setting [1]) is reported as 0.02. For the same compound, in the test with HDAC8 (setting [2]), the HillSlope amounted to 0.72. Further, the Top with HDAC8 (setting [3]) is listed as 1.17. The HillSlope with HDAC3/NCoR2 (setting [4]) is 1.87. Moreover, in the test with HDAC3/NCoR2 (setting [5]), the “Bottom (dose-response curve fit)” value came out at 0.01 and the “Top (dose-response curve fit)” value was found to be 0.22. Also, in the test with HDAC1 (setting [6]), the HillSlope was 1.09. In addition, in the test with HDAC1 (setting [7]), the “Bottom (dose-response fit)” value was 0.03 and the “Top (dose-response fit)” value came to 1.21. In the test with HDAC2, the “Bottom (Value)” value was determined as 0.01, the “Top (Value)” value worked out at 12.73 and the “HillSlope (Value)” value is on record as 0.33.

Turning to “H2A 49-64 (VYLAAVLEYLTAEILE; UniProt P0C0S8 50-65, looked up, fragment)”, in the test with HDAC8 (setting [1]), the Bottom turned out to be 0.02. Moreover, in the test with HDAC8 (setting [2]), the HillSlope stood at 0.49. In addition, in the test with HDAC8 (setting [3]), the Top was determined as 6.68. The HillSlope in the test with HDAC3/NCoR2 (setting [4]) was found to be 1.38. For the same compound, in the test with HDAC3/NCoR2 (setting [5]), the “Bottom (dose-response curve fit)” value amounted to 0 and the “Top (dose-response curve fit)” value was determined as 0.57. Also, the HillSlope with HDAC1 (setting [6]) was determined as 1.26. Moreover, in the test with HDAC1 (setting [7]), the “Bottom (dose-response fit)” value is listed as 0.01 and the “Top (dose-response fit)” value was found to be 0.2. In the test with HDAC2, the “Bottom (Value)” value is 0.02, the “Top (Value)” value stood at 0.44 and the “HillSlope (Value)” value amounted to 0.89.

As to “H2A 79-94 (IPRHLQLAIRNDEELN; UniProt P0C0S8 80-95, looked up, fragment)”, in the test with HDAC8 (setting [1]), the Bottom stood at 0.02. For the same compound, the HillSlope in the test with HDAC8 (setting [2]) came to 7.17. In the test with HDAC8 (setting [3]), the Top turned out to be 0.12. Further, in the test with HDAC3/NCoR2 (setting [4]), the HillSlope worked out at 1.48. Besides, in the test with HDAC3/NCoR2 (setting [5]), the “Bottom (dose-response curve fit)” value amounted to 0.01 and the “Top (dose-response curve fit)” value worked out at 0.69. The HillSlope in the test with HDAC1 (setting [6]) is 1.08. In the test with HDAC1 (setting [7]), the “Bottom (dose-response fit)” value is on record as 0.02 and the “Top (dose-response fit)” value turned out to be 19.1. Moreover, in the test with HDAC2, the “Bottom (Value)” value came to 0.02, the “Top (Value)” value was 40.23 and the “HillSlope (Value)” value was 1.01.

Consider “H2A 40-55 (AERVGAGAPVYLAAVL; UniProt P0C0S8 41-56, looked up, fragment)”, for which the Bottom with HDAC8 (setting [1]) turned out to be 0.01. Also, in the test with HDAC8 (setting [2]), the HillSlope is listed as 2.67. The Top with HDAC8 (setting [3]) turned out to be 0.08. In addition, in the test with HDAC3/NCoR2 (setting [4]), the HillSlope came to 1.44. Further, in the test with HDAC3/NCoR2 (setting [5]), the “Bottom (dose-response curve fit)” value came out at 0 and the “Top (dose-response curve fit)” value came to 0.3. Besides, in the test with HDAC1 (setting [6]), the HillSlope worked out at 0.82. Further, in the test with HDAC1 (setting [7]), the “Bottom (dose-response fit)” value worked out at 0.02 and the “Top (dose-response fit)” value is 5.13. Besides, in the test with HDAC2, the “Bottom (Value)” value is recorded as -0.05, the “Top (Value)” value is reported as 0.06 and the “HillSlope (Value)” value turned out to be 0.08.

On to “H2A 16-31 (TRSSRAGLQFPVGRVH; microarray-immobilized; UniProt P0C0S8 17-32, looked up, fragment)”, for which, in the test with HDAC8 (setting [1]), the Bottom was determined as 0.05. The HillSlope with HDAC8 (setting [2]) worked out at 6.81. Besides, in the test with HDAC8 (setting [3]), the Top stood at 0.12. Moreover, in the test with HDAC3/NCoR2 (setting [4]), the HillSlope is 0.97. For the same compound, in the test with HDAC3/NCoR2 (setting [5]), the “Bottom (dose-response curve fit)” value came to 0.01 and the “Top (dose-response curve fit)” value came to 0.73. For the same compound, in the test with HDAC1 (setting [6]), the HillSlope was found to be 1. In addition, in the test with HDAC1 (setting [7]), the “Bottom (dose-response fit)” value is reported as 0.03 and the “Top (dose-response fit)” value stood at 1.15. Moreover, the “LogEC50 (M)” value with HDAC1 (recombinant HDAC1, Fig. 3, X = Asuha, values are log10 of EC50 in M) is -7.63 M. In the test with HDAC2, the “Bottom (Value)” value is given as 0.04, the “Top (Value)” value was found to be 3.35 and the “HillSlope (Value)” value turned out to be 1.17.

On to P10 (KGLG[Asuha]GGAK), for which the Bottom in the test with HDAC8 (setting [8]) came out at 0.03; with HDAC3/NCoR2 (setting [9]), 0.06; in the test with HDAC1 (setting [10]) it was 0.02; with HDAC2 it was 0.03. Also, the HillSlope in the test with HDAC8 (setting [8]) is given as 10.49; with HDAC3/NCoR2 (setting [9]) it was 4.03; in the test with HDAC1 (setting [10]), 0.6; in the test with HDAC2, 1.44. Moreover, the Top is 0.13 with HDAC8 (setting [8]), 0.95 with HDAC3/NCoR2 (setting [9]), 1.69 with HDAC1 (setting [10]) and 0.39 with HDAC2. In the test with HDAC3/NCoR2 (log of EC50 in M, dose-response fit, µSPOT microarray, H4 K12X (X = Asuha) peptides, HDAC3), the “LogEC50 (M)” value is -8.87 M.

Consider `CC[C@H](C)[C@H](NC(=O)[C@H](CCC(=O)O)NC(=O)[C@H](CCCNC(=N)N)NC(=O)[C@H](CO)NC(=O)[C@@H](NC(=O)[C@@H](NC(=O)[C@@H](NC(C)=O)[C@@H](C)O)[C@@H](C)CC)[C@@H](C)O)C(=O)N[C@@H](CCC(N)=O)C(=O)N[C@H](C(=O)N[C@@H](C)C(=O)N[C@H](C(=O)N[C@@H](CCCNC(=N)N)C(=O)N[C@@H](CC(C)C)C(=O)N[C@@H](CC(C)C)C(=O)N[C@@H](CC(C)C)C(=O)N1CCC[C@H]1C(N)=O)C(C)C)[C@@H](C)O` [H2B 88-103] (Ac-TITSREIQTAVRLLLP-NH2), for which the Bottom at HDAC8 (setting [1]) is 0.03. For the same compound, at HDAC8 (setting [2]), the HillSlope came to 10.85. Further, the Top on HDAC8 (setting [3]) stood at 0.09. The HillSlope on HDAC3/NCoR2 (setting [4]) turned out to be 1.33. Also, at HDAC3/NCoR2 (setting [5]), the “Bottom (dose-response curve fit)” value turned out to be 0.01 and the “Top (dose-response curve fit)” value is 0.74. Also, the HillSlope at HDAC1 (setting [6]) is on record as 1.19. Besides, on HDAC1 (setting [7]), the “Bottom (dose-response fit)” value is 0.05 and the “Top (dose-response fit)” value worked out at 1.11. Besides, at HDAC2, the “Bottom (Value)” value is 0.04, the “Top (Value)” value came out at 0.21 and the “HillSlope (Value)” value worked out at 1.75.

“H2B 61-76 (IMNSFVNDIFERIAGE; UniProt P62807 62-77, looked up, fragment)”: in the test with HDAC8 (setting [1]), the Bottom was -0.5. Besides, the HillSlope with HDAC8 (setting [2]) is on record as 0.02. In the test with HDAC8 (setting [3]), the Top turned out to be 0.56. In the test with HDAC3/NCoR2 (setting [4]), the HillSlope came out at 1.99. Besides, in the test with HDAC3/NCoR2 (setting [5]), the “Bottom (dose-response curve fit)” value was 0.01 and the “Top (dose-response curve fit)” value amounted to 0.17. In the test with HDAC1 (setting [6]), the HillSlope is on record as 1.29. Also, in the test with HDAC1 (setting [7]), the “Bottom (dose-response fit)” value amounted to 0.03 and the “Top (dose-response fit)” value is 1.15. In the test with HDAC2, the “Bottom (Value)” value stood at 0.02, the “Top (Value)” value was found to be 0.12 and the “HillSlope (Value)” value was found to be 1.69.

Consider P13 (GLG[Asuha″]GGA), for which, in the test with HDAC8 (Hill slope of the µSPOT microarray dose-response fit, X = Asuha peptides), the “HillSlope (Value)” value came out at 17.49. In addition, in the test with HDAC8 (fitted bottom of the µSPOT microarray dose-response curve, X = Asuha peptides), the “Bottom (Value)” value is 0.01. In the test with HDAC8 (fitted top of the µSPOT microarray dose-response curve, X = Asuha peptides), the “Top (Value)” value was 0.03. Further, in the test with HDAC3/NCoR2 (setting [9]), the Bottom was -0.01, the HillSlope came out at 0.48 and the Top is on record as 24.94. Also, in the test with HDAC1 (setting [10]), the Bottom amounted to 0.02, the HillSlope came out at 0.73 and the Top amounted to 0.36. In the test with HDAC2, the Bottom stood at 0.01, the HillSlope is recorded as 8.37 and the Top came out at 0.04.
